test system: c-Src; assay: phosphorylation enrichment, bacterial display (enrichment ratio); higher = better substrate or ligand; peptides without Tyr show the background
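Also: 11-residue human phosphosite peptides and single-mutation variants displayed on the E. coli surface, counted by deep sequencing, each peptide's frequency after selection divided by its frequency in the unselected input library; frequency after pTyr selection over input frequency; kinase dosed for 20-30% of maximal phosphorylation in three min.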

Row | Sequence | phosphorylation enrichment
1 | ESAAIYNPVIF [RHO_Y301_K296E_YF] | 6.99
2 | IKKFKYGIEEH [GJA1_Y137] | 0.336
3 | PMQLPHDSTWE [PDGFRB_Y589_Y589H] | 0.628
4 | LRWREYQRQDF [PRKRIP1_Y90_R87W_YF] | 2.67
5 | KVDKEYEVGVR [GHR_Y226_R229G] | 0.414
6 | GIVKAYYVHAR [AIPL1_Y267_R270H] | 0.538
7 | VFAADYFKLLG [ROR2_Y645_YF] | 0.562
8 | SSYPDYLAAVD [GLB1_Y154_D151Y] | 0.451
9 | EESSHYSTEKE [ADAR_Y587] | 0.427
10 | NGRQCYSCKGN [PLAUR_Y217] | 0.346
11 | TTKGSYSLFVR [HCK_Y180_S183Y_YF] | 0.419
12 | FLAVGYHKPFI [IDS_Y225_H229Y_YF] | 0.39
13 | QDDFSYPSRQM [LDLR_Y847_G844D_YF] | 0.403
14 | EVLKNYNQQKD [GOLGA4_Y1551] | 0.388
15 | LSQDVYEEDSY [RET_Y900_R897Q] | 0.856
16 | IDDNQYAFLKA [HNF4A_Y286_E285Q_YF] | 0.553
17 | CTNPRYLAAGS [RABL3_Y185] | 0.467

Row | Sequence | phosphorylation enrichment
18 | TLSGIYQFIIA [FOXL2_Y81_YF] | 5.96
19 | RPSRQYATRDV [SCAMP3_Y35_L38R] | 0.407
20 | TCFDKYTGSTY [FN1_Y101_N104S] | 0.5
21 | ASLEAYCKHKF [RXRA_Y403_YF] | 0.497
22 | TARREYMHSPS [CPOX_Y429_W427R] | 0.432
23 | PEACDYGLGGG [GSTO1_Y239] | 1.19
24 | RFLERYIFNRQ [HLA-DPB1_Y57_E62Q_YF] | 0.893
25 | DDPRTYQKFGF [OAS1_Y362_R361T_YF] | 0.693
26 | LIYTNYEVGKD [GSTP1_Y112_A114V] | 8.72
27 | ANNEFYFRVCA | 0.412
28 | TRDVNYGWTIR [MT-CYB_Y75_I78T] | 0.492
29 | LGKGSYAKVKS [TSSK2_Y23] | 1.53
30 | FAFQLYDLDPD [CHP2_Y123_R127P_YF] | 3.52
31 | EKEQNYDLTEV [ECD_Y448] | 0.466
32 | GMTLSYLFREP [NDUFS8_Y74] | 0.505
33 | SAGSSYSISSI [PAX5_Y179_G183S] | 0.42

target: Hck (UniProt P08631); assay: as above
Sequence (P08631 whole entry, looked up): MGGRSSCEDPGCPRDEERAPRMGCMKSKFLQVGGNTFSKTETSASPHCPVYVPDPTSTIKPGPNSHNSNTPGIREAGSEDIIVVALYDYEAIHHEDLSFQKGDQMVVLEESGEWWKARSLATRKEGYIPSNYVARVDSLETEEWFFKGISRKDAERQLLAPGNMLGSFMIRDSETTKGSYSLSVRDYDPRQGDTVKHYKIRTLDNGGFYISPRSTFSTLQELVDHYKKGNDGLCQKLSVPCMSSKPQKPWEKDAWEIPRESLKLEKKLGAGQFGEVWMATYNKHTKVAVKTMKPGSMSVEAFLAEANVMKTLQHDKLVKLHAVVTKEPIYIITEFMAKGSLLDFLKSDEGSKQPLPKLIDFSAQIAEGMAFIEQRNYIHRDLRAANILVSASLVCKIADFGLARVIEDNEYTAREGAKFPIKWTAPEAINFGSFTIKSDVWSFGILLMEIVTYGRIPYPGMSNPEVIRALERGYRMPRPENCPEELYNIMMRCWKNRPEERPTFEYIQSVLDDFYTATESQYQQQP

Row | Sequence | phosphorylation enrichment
34 | ESAAIYNPVIF [RHO_Y301_K296E_YF] | 9.56
35 | IKKFKYGIEEH [GJA1_Y137] | 0.402
36 | PMQLPHDSTWE [PDGFRB_Y589_Y589H] | 0.78
37 | LRWREYQRQDF [PRKRIP1_Y90_R87W_YF] | 2.04
38 | KVDKEYEVGVR [GHR_Y226_R229G] | 0.452
39 | GIVKAYYVHAR [AIPL1_Y267_R270H] | 0.412
40 | VFAADYFKLLG [ROR2_Y645_YF] | 0.439
41 | SSYPDYLAAVD [GLB1_Y154_D151Y] | 0.515
42 | EESSHYSTEKE [ADAR_Y587] | 0.589
43 | NGRQCYSCKGN [PLAUR_Y217] | 0.336
44 | TTKGSYSLFVR [HCK_Y180_S183Y_YF] | 0.441
45 | FLAVGYHKPFI [IDS_Y225_H229Y_YF] | 0.456
46 | QDDFSYPSRQM [LDLR_Y847_G844D_YF] | 0.575
47 | EVLKNYNQQKD [GOLGA4_Y1551] | 0.452
48 | LSQDVYEEDSY [RET_Y900_R897Q] | 0.497
49 | IDDNQYAFLKA [HNF4A_Y286_E285Q_YF] | 1.64
50 | CTNPRYLAAGS [RABL3_Y185] | 0.357

Row | Sequence | phosphorylation enrichment
51 | TLSGIYQFIIA [FOXL2_Y81_YF] | 8.44
52 | RPSRQYATRDV [SCAMP3_Y35_L38R] | 0.412
53 | TCFDKYTGSTY [FN1_Y101_N104S] | 0.652
54 | ASLEAYCKHKF [RXRA_Y403_YF] | 0.519
55 | TARREYMHSPS [CPOX_Y429_W427R] | 0.471
56 | PEACDYGLGGG [GSTO1_Y239] | 0.739
57 | RFLERYIFNRQ [HLA-DPB1_Y57_E62Q_YF] | 0.678
58 | DDPRTYQKFGF [OAS1_Y362_R361T_YF] | 0.526
59 | LIYTNYEVGKD [GSTP1_Y112_A114V] | 8.89
60 | ANNEFYFRVCA | 0.516
61 | TRDVNYGWTIR [MT-CYB_Y75_I78T] | 0.478
62 | LGKGSYAKVKS [TSSK2_Y23] | 0.985
63 | FAFQLYDLDPD [CHP2_Y123_R127P_YF] | 1.8
64 | EKEQNYDLTEV [ECD_Y448] | 0.666
65 | GMTLSYLFREP [NDUFS8_Y74] | 0.509
66 | SAGSSYSISSI [PAX5_Y179_G183S] | 0.431

test system: c-Abl (mouse); assay: as above

Row | Sequence | phosphorylation enrichment
67 | ESAAIYNPVIF [RHO_Y301_K296E_YF] | 1.28
68 | IKKFKYGIEEH [GJA1_Y137] | 0.498
69 | PMQLPHDSTWE [PDGFRB_Y589_Y589H] | 1.61
70 | LRWREYQRQDF [PRKRIP1_Y90_R87W_YF] | 3.64
71 | KVDKEYEVGVR [GHR_Y226_R229G] | 0.658
72 | GIVKAYYVHAR [AIPL1_Y267_R270H] | 0.569
73 | VFAADYFKLLG [ROR2_Y645_YF] | 0.498
74 | SSYPDYLAAVD [GLB1_Y154_D151Y] | 0.653
75 | EESSHYSTEKE [ADAR_Y587] | 0.604
76 | NGRQCYSCKGN [PLAUR_Y217] | 0.416
77 | TTKGSYSLFVR [HCK_Y180_S183Y_YF] | 0.546
78 | FLAVGYHKPFI [IDS_Y225_H229Y_YF] | 3.35
79 | QDDFSYPSRQM [LDLR_Y847_G844D_YF] | 0.609
80 | EVLKNYNQQKD [GOLGA4_Y1551] | 0.717
81 | LSQDVYEEDSY [RET_Y900_R897Q] | 1.13
82 | IDDNQYAFLKA [HNF4A_Y286_E285Q_YF] | 1.02
83 | CTNPRYLAAGS [RABL3_Y185] | 0.787

Row | Sequence | phosphorylation enrichment
84 | TLSGIYQFIIA [FOXL2_Y81_YF] | 2.71
85 | RPSRQYATRDV [SCAMP3_Y35_L38R] | 0.615
86 | TCFDKYTGSTY [FN1_Y101_N104S] | 0.579
87 | ASLEAYCKHKF [RXRA_Y403_YF] | 0.687
88 | TARREYMHSPS [CPOX_Y429_W427R] | 0.507
89 | PEACDYGLGGG [GSTO1_Y239] | 1.28
90 | RFLERYIFNRQ [HLA-DPB1_Y57_E62Q_YF] | 1.36
91 | DDPRTYQKFGF [OAS1_Y362_R361T_YF] | 0.607
92 | LIYTNYEVGKD [GSTP1_Y112_A114V] | 14.1
93 | ANNEFYFRVCA | 0.923
94 | TRDVNYGWTIR [MT-CYB_Y75_I78T] | 0.534
95 | LGKGSYAKVKS [TSSK2_Y23] | 1.26
96 | FAFQLYDLDPD [CHP2_Y123_R127P_YF] | 1.05
97 | EKEQNYDLTEV [ECD_Y448] | 0.737
98 | GMTLSYLFREP [NDUFS8_Y74] | 0.652
99 | SAGSSYSISSI [PAX5_Y179_G183S] | 0.583

target: EPHB2 (UniProt P29323); assay: as above
Sequence (P29323 whole entry, looked up): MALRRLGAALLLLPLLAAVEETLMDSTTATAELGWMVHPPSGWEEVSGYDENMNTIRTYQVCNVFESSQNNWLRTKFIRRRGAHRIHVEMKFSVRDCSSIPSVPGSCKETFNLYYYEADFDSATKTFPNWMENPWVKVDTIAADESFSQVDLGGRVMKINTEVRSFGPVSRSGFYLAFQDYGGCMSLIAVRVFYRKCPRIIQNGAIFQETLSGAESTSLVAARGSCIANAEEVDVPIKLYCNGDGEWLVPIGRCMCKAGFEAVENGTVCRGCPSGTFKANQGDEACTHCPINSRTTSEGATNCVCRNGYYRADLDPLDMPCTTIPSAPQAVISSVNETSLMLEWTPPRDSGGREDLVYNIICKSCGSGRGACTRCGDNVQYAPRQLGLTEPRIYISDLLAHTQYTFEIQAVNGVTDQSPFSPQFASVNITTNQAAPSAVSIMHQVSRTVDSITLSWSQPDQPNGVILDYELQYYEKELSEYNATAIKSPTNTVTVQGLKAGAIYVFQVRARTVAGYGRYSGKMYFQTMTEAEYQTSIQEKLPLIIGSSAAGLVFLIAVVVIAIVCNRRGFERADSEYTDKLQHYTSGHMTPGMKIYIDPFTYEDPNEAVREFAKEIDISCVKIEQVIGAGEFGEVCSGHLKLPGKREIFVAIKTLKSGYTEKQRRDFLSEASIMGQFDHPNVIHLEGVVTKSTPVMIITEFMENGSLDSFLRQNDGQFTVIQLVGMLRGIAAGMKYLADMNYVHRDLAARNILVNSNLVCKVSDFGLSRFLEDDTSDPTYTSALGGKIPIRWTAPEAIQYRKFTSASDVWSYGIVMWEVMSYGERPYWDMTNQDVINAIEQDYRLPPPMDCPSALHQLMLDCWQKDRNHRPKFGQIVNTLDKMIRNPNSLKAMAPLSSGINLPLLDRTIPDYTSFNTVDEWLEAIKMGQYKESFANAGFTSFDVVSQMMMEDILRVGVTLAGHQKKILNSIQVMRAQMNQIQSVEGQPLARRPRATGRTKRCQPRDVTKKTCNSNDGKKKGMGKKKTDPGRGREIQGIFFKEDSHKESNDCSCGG

Row | Sequence | phosphorylation enrichment
100 | ESAAIYNPVIF [RHO_Y301_K296E_YF] | 0.579
101 | IKKFKYGIEEH [GJA1_Y137] | 0.497
102 | PMQLPHDSTWE [PDGFRB_Y589_Y589H] | 0.776
103 | LRWREYQRQDF [PRKRIP1_Y90_R87W_YF] | 2.29
104 | KVDKEYEVGVR [GHR_Y226_R229G] | 0.48
105 | GIVKAYYVHAR [AIPL1_Y267_R270H] | 0.51
106 | VFAADYFKLLG [ROR2_Y645_YF] | 0.403
107 | SSYPDYLAAVD [GLB1_Y154_D151Y] | 0.554
108 | EESSHYSTEKE [ADAR_Y587] | 0.493
109 | NGRQCYSCKGN [PLAUR_Y217] | 0.336
110 | TTKGSYSLFVR [HCK_Y180_S183Y_YF] | 0.846
111 | FLAVGYHKPFI [IDS_Y225_H229Y_YF] | 0.416
112 | QDDFSYPSRQM [LDLR_Y847_G844D_YF] | 0.575
113 | EVLKNYNQQKD [GOLGA4_Y1551] | 0.505
114 | LSQDVYEEDSY [RET_Y900_R897Q] | 1.19
115 | IDDNQYAFLKA [HNF4A_Y286_E285Q_YF] | 0.487
116 | CTNPRYLAAGS [RABL3_Y185] | 0.486

Row | Sequence | phosphorylation enrichment
117 | TLSGIYQFIIA [FOXL2_Y81_YF] | 9.15
118 | RPSRQYATRDV [SCAMP3_Y35_L38R] | 0.356
119 | TCFDKYTGSTY [FN1_Y101_N104S] | 0.556
120 | ASLEAYCKHKF [RXRA_Y403_YF] | 0.66
121 | TARREYMHSPS [CPOX_Y429_W427R] | 0.449
122 | PEACDYGLGGG [GSTO1_Y239] | 0.887
123 | RFLERYIFNRQ [HLA-DPB1_Y57_E62Q_YF] | 0.29
124 | DDPRTYQKFGF [OAS1_Y362_R361T_YF] | 0.469
125 | LIYTNYEVGKD [GSTP1_Y112_A114V] | 16.8
126 | ANNEFYFRVCA | 0.548
127 | TRDVNYGWTIR [MT-CYB_Y75_I78T] | 0.648
128 | LGKGSYAKVKS [TSSK2_Y23] | 0.875
129 | FAFQLYDLDPD [CHP2_Y123_R127P_YF] | 0.698
130 | EKEQNYDLTEV [ECD_Y448] | 0.675
131 | GMTLSYLFREP [NDUFS8_Y74] | 0.579
132 | SAGSSYSISSI [PAX5_Y179_G183S] | 0.451
